The target of test [1] is T1, CaATP-G-actin (rabbit skeletal muscle actin, monomer) (rabbit), P68135. Kind of test: cross-linking; competition: 6 μM Fl-LL-37 and 0-16 μM histatin-3 or histatin-5 for transglutaminase cross-linking to 4 μM CaATP-G-actin, 22 °C; SDS-PAGE visualized by fluorescence. The settings on record: remark: other sources report otherwise.
The target of test [2] is T1, CaATP-G-actin (rabbit skeletal muscle …). Nature of the test: cross-linking; bacterial transglutaminase (0.3-0.4 mg/ml) at 22 °C, 4 μM CaATP-G-actin or TG-G-actin with 4-8 μM peptide, 1 to 30 min, stopped by 1 mM cysteamine; 12% SDS-PAGE, Coomassie blue or fluorescence, densitometry; one series with 0-200 mM NaCl (1 min). The settings on record: remark: other sources report otherwise.

No end group written: not given here.

B1: Histatin-5 (peptide)
peptide: DSHAKRHHGYKRKFHEKHHSHRGY
As for B1, the percent decrease of the cross-linking of 6 μM Fl-LL-37 to 4 μM G-actin at 3 μM histatin in test [1] worked out at 68%.

B2: FAM labeled histatin-5 (peptide)
peptide: DSHAKRHHGYKRKFHEKHHSHRGY
modifications: also: FAM label, position not given here
Take B2: the percent decrease of the extent of cross-linking with 200 mM NaCl in test [2] was more than 70%.

These data come from publication PMC5340040.
